The values below come from US10487337B2, “Methods for monocot plant improvement” (Agresearch Limited, priority 2014, dated 2019).

One assay deals with ryegrass plants. The assay is described as follows: Root biomass analysis of grass transformants. As to conditions: root growth beyond the grow bag, approximately 6 weeks. The class given is in vivo. As to the method: An equal number (typically 4-10) of tillers were taken from WT and ryegrass plants transformed with Arabidopsis PPD under one of three root promoters. Tillers were planted into plastic grow bags containing potting mix and pruned to be of equal height. […] The increase in root biomass was quantified removing the attached above ground portion (leaves and shoots) and drying the roots at 65° C. for 48 hr then weighing the dry weights (Tables 3 and 4)
An equal number (typically 4-10) of tillers were taken from WT and ryegrass plants transformed with Arabidopsis PPD under a constitutive promoter. Tillers were planted into plastic grow bags containing potting mix and pruned to be of equal height. […] The increase in root biomass was quantified removing the attached above ground portion (leaves and shoots) and drying the roots at 65° C. for 48 hr then weighing the dry weights (Table 5).

A further assay deals with T1, BZR1 (Arabidopsis thaliana, UniProt Q8S307).
T1 construct: expressed in transfected cells; host or cells: yeast strain MaV203
T1 sequence (Q8S307 with tags, fused parts or gaps): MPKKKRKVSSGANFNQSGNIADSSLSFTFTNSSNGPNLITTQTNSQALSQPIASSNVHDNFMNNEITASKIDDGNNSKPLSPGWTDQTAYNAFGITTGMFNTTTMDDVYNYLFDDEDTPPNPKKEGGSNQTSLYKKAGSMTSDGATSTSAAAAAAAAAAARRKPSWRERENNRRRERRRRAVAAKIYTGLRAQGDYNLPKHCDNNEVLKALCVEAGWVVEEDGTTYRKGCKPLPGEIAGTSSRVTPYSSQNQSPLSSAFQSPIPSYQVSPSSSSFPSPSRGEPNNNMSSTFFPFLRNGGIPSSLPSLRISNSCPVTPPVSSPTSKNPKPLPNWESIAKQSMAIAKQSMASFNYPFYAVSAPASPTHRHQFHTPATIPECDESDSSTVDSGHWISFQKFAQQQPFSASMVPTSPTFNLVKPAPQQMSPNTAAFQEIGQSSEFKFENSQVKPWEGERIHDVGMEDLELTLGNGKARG
The assay is described as follows: Yeast two hybrid (Y2H) interaction with BZR1. Type of assay: binding. The text has this:
The constructs for Y2H and BiFC assays were generated as follows. Arabidopsis DNA sequences encoding the open reading frames for; At4g14713 (PPD1) and truncation and deletion derivatives of PPD1: PPD1; PPD1Δppd (N-terminal truncation of sequences encoding aa 1-61), PPD1Δtify, (internal deletion of sequences encoding aa 154-186), PPD1Δjas*(C-terminal truncation of sequences encoding aa 229-313) (FIG. 5), At4g28910 (NINJA), At1g15750 (TPL), At1g75080 (BZR1), a synthetic PUAS-35S promoter, and sequences encoding GAL4DBD and c-myc fusion proteins were synthesised and sequence verified by GeneArt. Most sequences were supplied as clones in pENTR221 ready for Gateway cloning into yeast and plant expression vectors. The exception, a promoter sequence for in planta transcription activation assays, incorporating 5′ Xho1 and 3′ Nco1 restriction enzyme sites, was supplied cloned in pMA-RQ. Plasmids for the transient LUC reporter assay: A synthetic promoter with 5×UAS GAL4 DNA binding sites upstream of a −105 bp CaMV35S promoter was cloned into the XhoI-NcoI sites within a dual luciferase construct pNWA62, which contains an intron-containing Firefly Luciferase gene (LUC) and 35Spro::Renilla Luciferase (REN) as an internal standard, to construct pAML7. […]

B1: PPD1: PEAPOD 1 protein of Arabidopsis thaliana, SEQ ID NO: 1 (protein, listed as Arabidopsis thaliana)
chain: MDVGVSPAKSILAKPLKLLTEEDISQLTREDCRKFLKDKGMRRPSWNKSQAIQQVLSLKALYEPGDDSGAGIFRKILVSQPVNPPRVTTTLIEPSNELEACGRVSYPEDNGACHRMDSPRSAEFSGGSGHFVSEKDGHKTTISPRSPAETSELVGQMTIFYSGKVNVYDGIPPEKARSIMHFAANPIDLPENGIFASSRMISKLISKEKMMELPQKGLEKANSSRDSGMEGQANRKVSLQRYREKRKDRKFSKAKKCPGVASSSLEMFLNCQPRMKAAYSQNLGCTGSPLHSQSPESQTKSPNLSVDLNSEGI
On to B1, for which the “root biomass/growth/length/branching compared to WT plants” value in the assay on ryegrass plants (constitutive promoter) and in the assay on ryegrass plants (root promoter) was “increase in root biomass/growth/length/branching” throughout. The “interaction with BZR1” value with BZR1 is “no direct interaction”.
